Test results taken from patent publication US12492236B2, “Fusion proteins for the treatment of cardiometabolic diseases” (Shattuck Labs, Inc., priority 2022, dated 2025).
One block for each molecule: values may come before it.

Legend:
[1] = molecular target: T1, recombinant human Activin A (Homo sapiens, UniProt P08476); experiment: MSD platform-based binding assay on plate-bound Activin A; settings: MSD signal, serial dilutions
T1 sequence (P08476 311-426): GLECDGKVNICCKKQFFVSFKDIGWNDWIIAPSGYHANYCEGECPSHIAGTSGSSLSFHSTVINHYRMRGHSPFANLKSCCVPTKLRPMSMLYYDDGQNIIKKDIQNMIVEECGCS
Procedure: (§1) The binding by a recombinant human ACVR2B-Fc fusion protein to activin A (also known as Inhibin beta A) was characterized using a Meso Scale Discovery (MSD) platform-based assay. Briefly, Activin A was coated on a plate and 8× serial dilutions of the purified recombinant human ACVR2B-Fc fusion protein were also added in a series of wells. The protein captured by the plate-bound Activin A was detected using an anti-human Fc antibody and a SULFO-TAG conjugated secondary antibody.
(§2) The binding to Activin A by the GLP-1-Fc-ACVR2B fusion protein produced using the mmRNA constructs was investigated using a Meso Scale Discovery (MSD) platform-based assay. Briefly, HEK293T cells were transfected with each mRNA construct using lipofectamine 2000, and culture supernatants were collected after 48 hours. Activin A was coated on a plate, and 3× serial dilutions of the culture supernatants were added to the plate for capture by the plate-bound Activin A. The protein captured by the plate-bound Activin A was detected using an anti-human Fc antibody and a SULFO-TAG conjugated secondary antibody. The MSD signals generated by the culture supernatants of HEK293T cells transfected with different mmRNA constructs were plotted as a line graph.

recombinant human GDF-8 = molecular target: T2, recombinant human GDF-8 (Homo sapiens, UniProt O14793); experiment: MSD platform-based binding assay on plate-bound GDF-8; settings: MSD signal, serial dilutions
T2 sequence (O14793 267-375): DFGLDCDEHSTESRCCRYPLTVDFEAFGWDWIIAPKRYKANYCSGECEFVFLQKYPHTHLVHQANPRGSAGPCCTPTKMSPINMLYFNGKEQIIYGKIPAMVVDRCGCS
Procedure: as §1, with “GDF-8” for “activin A”, “myostatin)” for “Inhibin beta A)”, “GDF-8” for “Activin A”
as §2, with “GDF-8” for “Activin A”, “GDF-8.” for “Activin A.”

[2] = system: rat insulinoma INS-1 cells; experiment: in vitro glucose-stimulated insulin secretion (GSIS) in INS-1 cells; type: cell-based; settings: 1 hour glucose, then 2 hour incubation, ELISA, FIG. 4B
From the text: X is a known inducer of GSIS.

[3] = molecular target: T3, glucose-dependent insulinotropic polypeptide receptor (GIPR) (Homo sapiens, UniProt P48546); experiment: GeneBLAzer GIPR-CRE-bla HEK293T cell-based reporter assay; settings: increasing amounts, FIG. 3B
T3 construct: host or cells: HEK293T (GeneBLAzer GIPR-CRE-bla)
T3 sequence (P48546 22-466): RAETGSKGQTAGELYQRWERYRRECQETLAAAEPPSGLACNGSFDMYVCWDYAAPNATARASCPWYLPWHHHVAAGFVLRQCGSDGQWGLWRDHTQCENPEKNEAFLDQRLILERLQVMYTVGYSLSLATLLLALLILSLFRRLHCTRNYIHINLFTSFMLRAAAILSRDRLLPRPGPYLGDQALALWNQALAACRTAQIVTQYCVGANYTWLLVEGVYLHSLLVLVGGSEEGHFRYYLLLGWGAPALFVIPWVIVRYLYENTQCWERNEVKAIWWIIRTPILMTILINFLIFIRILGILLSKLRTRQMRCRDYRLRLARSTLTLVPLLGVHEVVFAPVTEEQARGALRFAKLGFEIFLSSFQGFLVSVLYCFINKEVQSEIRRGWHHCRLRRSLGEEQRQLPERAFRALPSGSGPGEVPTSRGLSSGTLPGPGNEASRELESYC
Procedure: This assay is diagrammatically represented in FIG. 3A. […] In the presence of the β-lactamase LiveBLAzer™ substrate, cells expressing β-lactamase fluoresce blue (460 nm), while those not expressing β-lactamase fluoresce green (530 nm); higher 460/530 ratio indicates the activation of GIPR.
Briefly, GeneBLAzer® GIPR-CRE-bla HEK293T cells were added to wells of black-wall assay plates. […] To each well, LiverBLAzer-FRET B/G substrate mixture was added. The plate was covered with plate sealer and incubated at room temperature for 2 hours in the dark. Fluorescence emission was measured on SpectraMax plate reader at 460 nm and 530 nm with excitation set to 409 nm. After subtraction of background, average value at 460 nm (blue color) was divided by average value at 530 nm (green color) to obtain the 460/530 ratio.

GIP receptor (GIPR) = molecular target: T4, GIP receptor (GIPR) (Rattus norvegicus, UniProt P43219); experiment: cAMP-Glo assay in rat insulinoma INS-1 cells harboring a cAMP-luciferase reporter gene; type: cell-based; settings: 1 hour glucose, then 2 hour incubation, FIG. 4A
T4 construct: endogenous in cells; host or cells: rat INS-1 insulinoma cells (with cAMP-luciferase reporter / pGloSensor-22F biosensor)
T4 sequence (P43219 19-455): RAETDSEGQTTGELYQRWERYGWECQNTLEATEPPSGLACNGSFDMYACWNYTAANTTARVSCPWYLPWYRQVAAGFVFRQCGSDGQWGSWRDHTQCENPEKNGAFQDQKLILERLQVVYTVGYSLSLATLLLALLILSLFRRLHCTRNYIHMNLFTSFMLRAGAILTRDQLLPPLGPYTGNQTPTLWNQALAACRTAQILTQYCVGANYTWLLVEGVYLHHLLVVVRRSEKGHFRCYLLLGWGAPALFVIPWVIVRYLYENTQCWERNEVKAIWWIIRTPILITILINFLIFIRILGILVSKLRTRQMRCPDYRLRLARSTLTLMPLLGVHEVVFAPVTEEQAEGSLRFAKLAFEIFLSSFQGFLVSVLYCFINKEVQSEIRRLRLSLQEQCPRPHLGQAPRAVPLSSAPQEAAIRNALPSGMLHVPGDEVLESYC
From the text: Rat insulinoma INS-1 cells harboring a cAMP-luciferase reporter gene were used to study the activation of GIPR. Without wishing to be bound by theory, the activation of GIPR leads to temporary depletion of ATP because of consumption of ATP in cyclization reaction to produce cAMP as well as by phosphorylation by protein kinase A of its substrate. Without wishing to be bound by theory, the temporary depletion of ATP leads to an inhibition of luciferase activity, which needs ATP as a substrate.

binding to Activin A [1]: binds to the human Activin A
binding to GDF-8 (recombinant human GDF-8): binds to the human GDF-8
Molecule: GLP-1-Fc-ACVR2B: GLP-1 fused to ACVR2B extracellular domain via IgG1 hinge-CH2-CH3 Fc domain; SEQ ID NO: 154

B1: GIP(Ag)-Fc-FGF19: GIP fused to FGF19 via a hinge-CH2-CH3 Fc domain derived from IgG1; SEQ ID NO: 88 (protein)
chain: YAEGTFISDYSIAMDKIHQQDFVNWLLAQKGKKNDWKHNITQPCPAPEAAGGPSVFLFPPKPKDTLMISRTPEVTCVVVDVSHEDPEVKFNWYVDGVEVHNAKTKPREEQYNSTYRVVSVLTVLHQDWLNGKEYKCKVSNKALPAPIEKTISKAKGQPREPQVYTLPPSRDELTKNQVSLTCLVKGFYPSDIAVEWESNGQPENNYKTTPPVLDSDGSFFLYSKLTVDKSRWQQGNVFSCSVMHEALHNHYTQKSLSLSPGKIEGRMDRDSSPLVHYGWGDPIRLRHLYTSGPHGLSSCFLRIRADGVVDCARGQSAHSLLEIKAVALRTVAIKGVHSVRYLCMGADGKMQGLLQYSEEDCAFEEEIRPDGYNVYRSEKHRLPVSLSSAKQRQLYKNRGFLPLSHFLPMLPMVPEEPEDLRGHLESDMFSSPLETDSMDPFGLVTGLEAVRSPSFEK
insulin in culture supernatant (GSIS) [2]: stimulated insulin production to a similar, if not greater magnitude than dulaglutide or tirzepatide
460/530 ratio, indicative of the activation of GIPR [3]: dose-dependent and saturable increase in 460/530 ratio
inhibition of luciferase (GIPR activation, cAMP accumulation) (GIP receptor (GIPR)): dose-dependent and saturable inhibition of luciferase with similar potency
